Test results reported in publication PMC10538476.

Molecular target: Human macrophage galactose-type lectin (MGL) isoform 2 extracellular domain (human)
Assay: SAXS; MGL-ECD at 1 mg/mL in 25 mM Tris pH 8, 150 mM NaCl, 4 mM CaCl2, 25°C; ESRF BM29 beamline; oligomeric state from the estimated molecular weight

Substance: Human macrophage galactose-type lectin (MGL) isoform 2 extracellular domain (domain or fragment)
- stoichiometry N: 3
